From publication PMC4575180 (2015)

Biological target: T1, syntaxin3 (Rattus norvegicus (Rat), UniProt Q08849)
T1 chain: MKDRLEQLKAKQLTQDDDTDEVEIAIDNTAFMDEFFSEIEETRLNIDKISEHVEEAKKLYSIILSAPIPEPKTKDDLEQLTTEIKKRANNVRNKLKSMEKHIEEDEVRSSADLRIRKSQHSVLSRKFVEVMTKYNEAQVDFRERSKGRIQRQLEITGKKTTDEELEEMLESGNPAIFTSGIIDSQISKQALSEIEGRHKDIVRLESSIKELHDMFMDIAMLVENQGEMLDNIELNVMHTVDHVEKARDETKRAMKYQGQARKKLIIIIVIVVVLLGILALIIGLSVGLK
Assay: pull-down

binding result: no binding
B1: Munc18c (protein)
chain: MAPPVSERGLKSVVWRKIKTAVFDDCRKEGEWKIMLLDEFTTKLLSSCCKMTDLLEEGITVIENIYKNREPVRQMKALYFISPTPKSVDCFLRDFGSKSEKKYKAAYIYFTDFCPDSLFNKIKASCSKSIRRCKEINISFIPQESQVYTLDVPDAFYYCYSPDPSNASRKEVVMEAMAEQIVTVCATLDENPGVRYKSKPLDNASKLAQLVEKKLEDYYKIDEKGLIKGKTQSQLLIIDRGFDPVSTVLHELTFQAMAYDLLPIENDTYKYKTDGKEKEAVLEEDDDLWVRVRHRHIAVVLEEIPKLMKEISSTKKATEGKTSLSALTQLMKKMPHFRKQISKQVVHLNLAEDCMNKFKLNIEKLCKTEQDLALGTDAEGQRVKDSMLVLLPVLLNKNHDNCDKIRAVLLYIFGINGTTEENLDRLIHNVKIEDDSDMIRNWSHLGVPIVPPSQQAKPLRKDRSAEETFQLSRWTPFIKDIMEDAIDNRLDSKEWPYCSRCPAVWNGSGAVSARQKPRTNYLELDRKNGSRLIIFVIGGITYSEMRCAYEVSQAHKSCEVIIGSTHILTPRKLLDDIKMLNKSKDKVSFKDE
